The Human Domainome abundance scans (Beltran et al. 2025)
± gives the uncertainty stated by the source.

B1: Calcium-binding protein 2, residues 155 to 219; numbered along this chain, Q9NPB3 (parent)
chain: RELRDAFREFDTNGDGRISVGELRAALKALLGERLSQREVDEILQDVDLNGDGLVDFEEFVRMMS
B2: Chromodomain-helicase-DNA-binding protein 4, residues 365 to 417; numbered along this chain, Q14839 (parent)
chain: YETDHQDYCEVCQQGGEIILCDTCPRAYHMVCLDPDMEKAPEGKWSCPHCEKE

Variants of: B1
Experiment: abundance fitness (aPCA) (normalised: wild type 0, dead -1); higher = more abundant; growth selection in yeast, the domain comes from the species named
Details: Homo sapiens

Variant	abundance fitness
GELRDAFREFDTNGDGRISVGELRAALKALLGERLSQREVDEILQDVDLNGDGLVDFEEFVRMMS	-0.204 ± 0.11
TELRDAFREFDTNGDGRISVGELRAALKALLGERLSQREVDEILQDVDLNGDGLVDFEEFVRMMS	-0.007 ± 0.19
NELRDAFREFDTNGDGRISVGELRAALKALLGERLSQREVDEILQDVDLNGDGLVDFEEFVRMMS	0.078 ± 0.084
CELRDAFREFDTNGDGRISVGELRAALKALLGERLSQREVDEILQDVDLNGDGLVDFEEFVRMMS	-0.26 ± 0.16
MELRDAFREFDTNGDGRISVGELRAALKALLGERLSQREVDEILQDVDLNGDGLVDFEEFVRMMS	0.206 ± 0.21
EELRDAFREFDTNGDGRISVGELRAALKALLGERLSQREVDEILQDVDLNGDGLVDFEEFVRMMS	0.423 ± 0.36
AELRDAFREFDTNGDGRISVGELRAALKALLGERLSQREVDEILQDVDLNGDGLVDFEEFVRMMS	-0.114 ± 0.33
SELRDAFREFDTNGDGRISVGELRAALKALLGERLSQREVDEILQDVDLNGDGLVDFEEFVRMMS	-0.113 ± 0.1
KELRDAFREFDTNGDGRISVGELRAALKALLGERLSQREVDEILQDVDLNGDGLVDFEEFVRMMS	0.12 ± 0.37
RPLRDAFREFDTNGDGRISVGELRAALKALLGERLSQREVDEILQDVDLNGDGLVDFEEFVRMMS	-0.21 ± 0.076
RSLRDAFREFDTNGDGRISVGELRAALKALLGERLSQREVDEILQDVDLNGDGLVDFEEFVRMMS	-0.355 ± 0.13
RVLRDAFREFDTNGDGRISVGELRAALKALLGERLSQREVDEILQDVDLNGDGLVDFEEFVRMMS	-0.357 ± 0.091
RYLRDAFREFDTNGDGRISVGELRAALKALLGERLSQREVDEILQDVDLNGDGLVDFEEFVRMMS	-0.306 ± 0.15
RTLRDAFREFDTNGDGRISVGELRAALKALLGERLSQREVDEILQDVDLNGDGLVDFEEFVRMMS	-0.093 ± 0.067
RCLRDAFREFDTNGDGRISVGELRAALKALLGERLSQREVDEILQDVDLNGDGLVDFEEFVRMMS	-0.472 ± 0.19
RRLRDAFREFDTNGDGRISVGELRAALKALLGERLSQREVDEILQDVDLNGDGLVDFEEFVRMMS	-0.128 ± 0.058
RKLRDAFREFDTNGDGRISVGELRAALKALLGERLSQREVDEILQDVDLNGDGLVDFEEFVRMMS	-0.158 ± 0.1
RLLRDAFREFDTNGDGRISVGELRAALKALLGERLSQREVDEILQDVDLNGDGLVDFEEFVRMMS	-0.612 ± 0.058
RGLRDAFREFDTNGDGRISVGELRAALKALLGERLSQREVDEILQDVDLNGDGLVDFEEFVRMMS	-0.15 ± 0.096
RALRDAFREFDTNGDGRISVGELRAALKALLGERLSQREVDEILQDVDLNGDGLVDFEEFVRMMS	-0.509 ± 0.084
RQLRDAFREFDTNGDGRISVGELRAALKALLGERLSQREVDEILQDVDLNGDGLVDFEEFVRMMS	-0.114 ± 0.064
RDLRDAFREFDTNGDGRISVGELRAALKALLGERLSQREVDEILQDVDLNGDGLVDFEEFVRMMS	-0.677 ± 0.37
RWLRDAFREFDTNGDGRISVGELRAALKALLGERLSQREVDEILQDVDLNGDGLVDFEEFVRMMS	-0.344 ± 0.075
RHLRDAFREFDTNGDGRISVGELRAALKALLGERLSQREVDEILQDVDLNGDGLVDFEEFVRMMS	-0.086 ± 0.13

Variants of: B2
Experiment: as above
Details: Homo sapiens

Variant	abundance fitness
K52Q	-0.134 ± 0.18
K52P	-0.072 ± 0.16
K52E	0.136 ± 0.16
K52I	-0.586 ± 0.21
K52T	0.06 ± 0.16
K52R	-0.106 ± 0.11
K52L	-0.088 ± 0.11
K52V	-0.176 ± 0.099
K52W	-0.346 ± 0.14
K52H	0.286 ± 0.23
K52N	-0.007 ± 0.21
K52G	-0.204 ± 0.12
K52S	0.161 ± 0.14
K52M	-0.376 ± 0.23
E53D	-0.551 ± 0.45
E53W	0.113 ± 0.22
E53C	-0.263 ± 0.25
E53L	-0.133 ± 0.32
E53G	-0.252 ± 0.13
E53V	-0.356 ± 0.19
E53S	-0.023 ± 0.16
E53H	-0.378 ± 0.33
E53I	-0.335 ± 0.39
E53N	-0.57 ± 0.38
E53A	-0.207 ± 0.16
E53R	-0.04 ± 0.15
E53T	-0.717 ± 0.41
E53Y	-0.323 ± 0.39
